Where a chain is given by its changes, count along the chain named.

Series [1] concerns T1, dCas12j-8 E535R E535R;D369A;E567A;D658A (bacteriophage (metagenome)).
T1 sequence: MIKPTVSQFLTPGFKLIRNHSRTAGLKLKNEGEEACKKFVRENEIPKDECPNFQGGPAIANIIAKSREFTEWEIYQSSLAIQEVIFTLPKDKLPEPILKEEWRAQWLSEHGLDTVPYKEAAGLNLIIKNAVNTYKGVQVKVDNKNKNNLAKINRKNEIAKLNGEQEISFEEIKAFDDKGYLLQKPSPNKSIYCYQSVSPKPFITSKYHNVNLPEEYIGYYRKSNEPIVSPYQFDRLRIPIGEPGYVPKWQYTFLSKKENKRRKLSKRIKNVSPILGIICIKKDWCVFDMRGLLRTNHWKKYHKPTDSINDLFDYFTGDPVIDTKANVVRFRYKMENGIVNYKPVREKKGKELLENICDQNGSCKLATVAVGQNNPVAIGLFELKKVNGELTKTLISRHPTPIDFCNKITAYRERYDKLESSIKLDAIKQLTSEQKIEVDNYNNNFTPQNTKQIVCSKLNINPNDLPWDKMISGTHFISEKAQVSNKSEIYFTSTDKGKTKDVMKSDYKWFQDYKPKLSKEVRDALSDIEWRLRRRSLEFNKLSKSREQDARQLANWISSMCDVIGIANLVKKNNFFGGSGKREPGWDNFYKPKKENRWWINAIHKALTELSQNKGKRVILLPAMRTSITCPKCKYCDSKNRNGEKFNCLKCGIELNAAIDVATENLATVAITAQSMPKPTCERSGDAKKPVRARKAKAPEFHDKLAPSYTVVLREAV
As to conditions: HEK293T cells; panel 1c (compare within a panel only); scale: mean GFP / mean GFP of wild type, printed, no background subtraction.

For series [2], the system named is T2, dCas12j-8 E258R+D313R+D495R+D527R+E547R E258R;D313R;D495R;D527R;E547R;D369A;E567A;D658A (bacteriophage (metagenome)).
T2 sequence: T1 sequence with E258R, D313R, D495R, D527R, R535E, E547R
As to conditions: HEK293T cells; panel 1e (compare within a panel only); scale: mean GFP / mean GFP of wild type, printed, no background subtraction.

On to “CUUUCAAGACUAAUAGAUUGCUCCUUACGAGGAGACACUCCCUAUCAGUGAUAGAG / TTNACTCCCTATCAGTGATAGAG / CTCTATCACTGATAGGGAGTNAA [TetO]”, for which the binding signal in series [1] is 0.495; in series [2], 5.89.

The record behind these values is paper PMC12412624, “Engineered Cas12j‐8 is a Versatile Platform for Multiplexed Genome Modulation in Mammalian Cells”.
